T1: Ly6a-Fc fusion protein (murine, UniProt P05533 27-112)
T1 construct: Captured on a protein A sensor chip for SPR; also called Ly6a-Fc protein; not shown: Fc part
T1 sequence: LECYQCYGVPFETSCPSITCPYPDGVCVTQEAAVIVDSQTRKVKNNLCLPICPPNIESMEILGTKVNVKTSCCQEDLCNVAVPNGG


Target: T1, Ly6a-Fc fusion protein
Assay: SPR, Ly6a-Fc captured on protein A chip, rAAV injected as analyte

Binder | binding result
AAV-X1 (other, Tested as an assembled rAAV particle; also called AAV-CAP.X1) MAADGYLPDWLEDNLSEGIREWWALKPGAPQPKANQQHQDNARGLVLPGYKYLGPGNGLDKGEPVNAADAAALEHDKAYDQQLKAGDNPYLKYNHADAEFQERLKEDTSFGGNLGRAVFQAKKRLLEPLGLVEEAAKTAPGKKRPVEQSPQEPDSSAGIGKSGAQPAKKRLNFGQTGDTESVPDPQPIGEPPAAPSGVGSLTMASGGGAPVADNNEGADGVGSSSGNWHCDSQWLGDRVITTSTRTWALPTYNNHLYKQISNSTSGGSSNDNAYFGYSTPWGYFDFNRFHCHFSPRDWQRLINNNWGFRPKRLNFKLFNIQVKEVTDNNGVKTIANNLTSTVQVFTDSDYQLPYVLGSAHEGCLPPFPADVFMIPQYGYLTLNDGSQAVGRSSFYCLEYFPSQMLRTGNNFQFSYEFENVPFHSSYAHSQSLDRLMNPLIDQYLYYLSRTINGSGQNQQTLKFSVAGPSNMAVQGRNYIPGPSYRQQRVSTTVTQNNNSEFAWPGASSWALNGRNSLMNPGPAMASHKEGEDRFFPLSGSLIFGKQGTGRDNVDADKVMITNEEEIKTTNPVATESYGQVATNHQSAQGNNTRSVAQAQTGWVQNQGILPGMVWQDRDVYLQGPIWAKIPHTDGNFHPSPLMGGFGMKHPPPQILIKNTPVPADPPTAFNKDKLNSFITQYSTGQVSVEIEWELQKENSKRWNPEIQYTSNYYKSNNVEFAVNTEGVYSEPRPIGTRYLTRNL | no binding
AAV-X1.1 (other, Tested as an assembled rAAV particle; also called AAV9-X1.1) MAADGYLPDWLEDNLSEGIREWWALKPGAPQPKANQQHQDNARGLVLPGYKYLGPGNGLDKGEPVNAADAAALEHDKAYDQQLKAGDNPYLKYNHADAEFQERLKEDTSFGGNLGRAVFQAKKRLLEPLGLVEEAAKTAPGKKRPVEQSPQEPDSSAGIGKSGAQPAKKRLNFGQTGDTESVPDPQPIGEPPAAPSGVGSLTMASGGGAPVADNNEGADGVGSSSGNWHCDSQWLGDRVITTSTRTWALPTYNNHLYKQISNSTSGGSSNDNAYFGYSTPWGYFDFNRFHCHFSPRDWQRLINNNWGFRPKRLNFKLFNIQVKEVTDNNGVKTIANNLTSTVQVFTDSDYQLPYVLGSAHEGCLPPFPADVFMIPQYGYLTLNDGSQAVGRSSFYCLEYFPSQMLRTGNNFQFSYEFENVPFHSSYAHSQSLDRLMNPLIDQYLYYLSRTIDGAATKNQTLKFSVAGPSNMAVQGRNYIPGPSYRQQRVSTTVTQNNNSEFAWPGASSWALNGRNSLMNPGPAMASHKEGEDRFFPLSGSLIFGKQGTGRDNVDADKVMITNEEEIKTTNPVATESYGQVATNHQSAQGNNTRSVAQAQTGWVQNQGILPGMVWQDRDVYLQGPIWAKIPHTDGNFHPSPLMGGFGMKHPPPQILIKNTPVPADPPTAFNKDKLNSFITQYSTGQVSVEIEWELQKENSKRWNPEIQYTSNYYKSNNVEFAVNTEGVYSEPRPIGTRYLTRNL | no binding

Source: patent US20240197919A1 (CALIFORNIA INSTITUTE OF TECHNOLOGY, published 2024)
